From patent US10865391B2, “Glutamate dehydrogenase mutants and their application in preparation of L-phosphinothricin” (ZHEJIANG UNIVERSITY, priority 2018, dated 2020)
Where a chain is given by its changes, count along the chain named. Names and notes keep the numbering of the source.

B1: PpGluDH-A167G: PpGluDH mutant, alanine 167 to glycine, SEQ ID NO. 1 (protein)
chain: MSTMIESVDNFLARLKQRDPGQPEFHQAVEEVLRTLWPFLEANPHYLQSGILERMVEPERAVLFRVSWVDDQGKVQVNRGYRIQMSSAIGPYKGGLRFHPSVNLSVLKFLAFEQVFKNSLTSLPMGGGKGGSDFDPKGKSDAEVMRFCQAFMSELYRHIGADCDVPGGDIGVGAREIGFMFGQYKRLANQFTSVLTGKGMTYGGSLIRPEATGYGCVYFAEEMLKRQDKRIDGRRVAVSGSGNVAQYAARKVMDLGGKVISLSDSEGTLYAEAGLTDAQWDALMELKNVKRGRISELAGQFGLEFRKGQTPWSLPCDIALPCATQNELGAEDARTLLRNGCICVAEGANMPTTLEAVDIFLDAGILYAPGKASNAGGVAVSGLEMSQNAMRLLWTAGEVDSKLHNIMQSIHHACVHYGEEADGRINYVKGANIAGFVKVADAMLAQGVV
modifications: Pseudomonas putida glutamate dehydrogenase mutant
B2: PpGluDH-V378A: PpGluDH mutant, valine 378 to alanine, SEQ ID NO. 2 (protein)
chain: B1 chain with G167A, V378A
modifications: Pseudomonas putida glutamate dehydrogenase mutant
B3: LsGluDHp-A175G: LsGluDHp mutant A175G, SEQ ID NO. 7 (protein)
chain: MTITTVSNEQLAKEYVDGVFEQLKQQNCHQAEFLQAAEEIFISLVPVFVQHPEYIKANILSRIVEPDRIISFRVAWQDDHNQVQVNRGYRVQYSNVMGPYKGGLRFHPSVNESIIKFLGFEQIFKNALTGQPIGGGKGGSNFDPKGKSDSEIMRFCQAFMTELYRHIGPDVDVPGGDIGVGAREVGYLWGQYKRLTKASESGVLTGKTPGYGGSLARKEATGYGTVYFVNEMLKDVNDSFEGKTVVVSGSGNVSTYAIEKAQQYGAKVVACSDSSGYIYDPEGLDLDVIKEIKEVKGDRISTYVSYRPNATFTNGCTGIWTIPCDIALPCATQNEINGESARTLISNGVKAIGEGANMPSDLEAINEFLNAGVLFGPAKAANAGGVAVSALEMAQDSSRVFWSFEEVDAKLHQIMKDIYSDSKAAAEKYGFPGNLVMGANIAGFIKVADGMLTEGIY
modifications: Lysinibacillus sphaericus glutamate dehydrogenase mutant
B4: BtGluDH-A155G: BtGluDH mutant A155G, SEQ ID NO. 19 (protein)
chain: MVTENTQGKEQKQESMNLLQSTQTVIKEALEKLGYQESMYELLKEPLRVLTVRIPVRMDNGEVKVFTGYRAQHNDAVGPTKGGIRFHPDVTEDEVKALSIWMSLKAGIVDLPYGGGKGGIICDPREMSFRELERLSRGYVRAVSQIVGPTKDIPGPDVFTNSQIMAWMMDEYSRIREFDSPGFITGKPIALGGSHGRETATAKGVTICIREAAKRRGIDLKGARVVVQGFGNAGSYLSKFMHDAGAKVVGISDAYGALYDPNGLDIDYLLDRRDSFGTVTKLFTNTITNKELLELDCDILVPAAIENQITAANAHNIKAKIVVEAANGPTTLEATKILTERGILLVPDVLASAGGVTVSYFEWVQNNQGYYWSEEEVQEKLEKVMVKAFENVYSLAQTRRVDMRLAAYMVGVRKMAEASRFRGWV
modifications: Brevibacillus thermoruber glutamate dehydrogenase mutant

Legend:
Format in all cases: biochemical
[1] = Standard enzyme activity measurement toward PPO, crude enzyme (per volume fermentation broth); details: for Enzyme activity (per volume fermentation broth) / Enzyme activity (per volume fermentation broth), times higher than that of wild type / Enzyme activity of mutants (U/mL): toward PPO; for Enzyme activity (per volume fermentation broth): 100 mM substrate, 10 mM coenzyme, 500 mM NH4+, pH 7.5, 35° C., 10 min; for Enzyme activity (per volume fermentation broth) / Enzyme activity of mutants (U/mL): crude enzyme; for Enzyme activity (per volume fermentation broth), times higher than that of wild type: versus wild type PpGluDH; for Enzyme activity of mutants (U/mL): standard system, N.D. = no detectable activity
Procedure: The preserved recombinant E. coli is streaked onto the plate for activation. Single colonies are picked and inoculated into 5 mL LB liquid medium containing 50 μg/mL kanamycin and cultured at 37° C. for 12 h. The culture is transferred to 50 mL fresh LB liquid medium containing 50 μg/mL kanamycin at a 2% inoculum, and then incubated at 37° C. until the OD600 reaches 0.6; after that, add IPTG to a final concentration of 0.5 mM, and then proceed with induction culture under the temperature of 18° C. for 16 h.
After the cultivation, the culture is centrifuged at 10000 rpm for 10 min; discard supernatant, and collect cells. The harvested cells are washed for 2 times using pH 7.5 50 mM phosphate buffer. After that, the cells are re-suspend into the pH 7.5 phosphate buffer and disrupted ultrasonically (400W for 30 times, Ultrasonic time is 3 s, and the interval is 7 s). The cell disrupted solution is centrifuged at 12000 g for 5 min at 4° C. to remove the precipitate, and the supernatant obtained is the crude enzyme containing recombinant glutamate dehydrogenase
(§1) The standard enzyme activity measurement system: Appropriate amount of enzyme, 100 mM substrate, 10 mM coenzyme (NADH or NADPH), 500 mM NH4^+ ((NH4)2SO4); total system volume is up to 400 μL; reaction medium is pH 7.5 phosphate buffer. 35° C. reaction for 10 min; after that, add 40 uL 5 M NaOH to terminate reaction.
(§2) Definition of enzyme activity unit: The quantity of enzyme as required by generation of 1 μmol L-phosphinothricin per minute under standard reaction conditions.
Proceed with induction culture of constructed mutants, and prepare crude enzyme solution.

[2] = Specific activity of pure enzyme toward PPO; details: for Specific activity of pure enzyme: purified protein; for Specific activity, times higher than that of wild type: versus wild type PpGluDH
Procedure: The recombinant E. coli carrying glutamate dehydrogenase gene used in the present invention is constructed and kept by our laboratory. The vector used is pET-28a(+), and the host used is E. coli BL21(DE3). NI-NTA resin (HisPur™ Ni-NTA Resin) used for protein purification is purchased from Thermo Scientific™; protein purification is carried out in reference to specifications.
as §1, §2
Meanwhile, specific activity of pure enzyme obtained through purification has also been measured. As measured, specific activity of pure protein of wild type PpGluDH is 0.31 U/mg; specific activity of PpGluDH-A167G is 38.13 U/mg, which is 123 times higher than that of wild type; specific activity of PpGluDH-V378A is 35.96 U/mg, which is 116 times higher than that of wild type.

[3] = Preparation of L-phosphinothricin by coupling glutamate dehydrogenase with glucose dehydrogenase; details: 500 mM PPO, pH 7.5, 6 h
Procedure: (§3) The reaction process is monitored by measuring the concentration of substrate in the reaction solution applying high-performance liquid chromatography (HPLC). HPLC analysis method is stated as follows: column model: Pntulips® QS-C18, 5 μm, 4.6 mm×250 mm. Mobile phase: 50 mM (NH4)2HPO4, added 1% of 10% tetrabutyl ammonium hydroxide, adjusted to pH 3.6 with 50% phosphoric acid(mass fraction), added 8% acetonitrile. Detective wave length is 205 nm; flow rate is 1.0 mL/min. Column temperature is 40° C.
(§4) The enantiomeric excess and concentration of product are determined through pre-column derivatization high-performance liquid chromatography; the specific analysis method is stated as follows:
(§5) (1) HPLC condition: column model: Pntulips® QS-C18, 5 μm, 4.6 mm×250 mm. Mobile phase: 50 mM Sodium acetate: Acetonitrile=8: 0.5 (v/v). Detective wave length: 338 nm. Flow rate: 0.85 mL/min. Column temperature: 30° C.
(§6) (2) Derivatization reagent: Weigh 0.03 g phthalaldehyde and 0.1 g N-acetyl-L-cysteine, and use 400 uL ethanol for solubilization; after that, add 4 mL 0.2 mol/L borate buffer (pH 9.8) and shake for dissolution prior to storage in the fridge under the temperature of 4° C. (no more than 4 days).
(§7) (3) Derivatization reaction and analysis: Add 150 μL derivatization reagent into 100 μL sample, mix and incubate at 25° C. for 5 min, and then inject 20 μL for analysis.
Culture recombinant E. coli expressing glutamate dehydrogenase (PpGluDH) and glucose dehydrogenase (BsGDH-2M, SEQ ID NO. 21) with method in Step 3 of Embodiment 1; proceed with centrifugal collection of cells and ultrasonic cell disruption to prepare crude enzyme solution.
(§8) The final volume of the reaction is 30 mL; each sample contains 500 mM substrate PPO, 600 mM glucose, 250 mM (NH4)2SO4 and 0.5 mM NADP^+. Concentration of glutamate dehydrogenase cells (dry weight) is 1.0 g/L; concentration of glucose dehydrogenase cells (dry weight) is 1.25 g/L. Use water bath to control the reaction temperature at 35° C.; titrate ammonia to control pH at 7.5 during the reaction process. Use non-chiral HPLC to determine residual concentration of PPO after reaction for 6 h; meanwhile, use pre-column derivatization HPLC to determine the concentration and ee value of formed L-phosphinothricin.
as §8, with “0.5” for “1.0”
as §8, with “NAD^+.” for “NADP^+.”, “1.25” for “1.0”
The final volume of the reaction is 30 mL; each sample contains 500 mM substrate PPO, 600 mM glucose, 250 mM (NH4)2SO4 and 0.5 mM NAD^+. Concentration of glutamate dehydrogenase cells (dry weight) is 1.25 g/L; concentration of glucose dehydrogenase cells (dry weight) is 1.25 g/L. Use water bath to control the reaction temperature at 35° C.; titrate ammonia to control pH at 7.5 during the reaction process. […]

[4] = Preparation of L-phosphinothricin by coupling glutamate dehydrogenase with alcohol dehydrogenase; details: 500 mM PPO, 750 mM isopropanol, TBADH, NADP+, GluDH cells 0.5 g/L, 35° C., pH 7.5, 12 h
Procedure: as §3, §4, §5, §6, §7
Culture recombinant E. coli expressing glutamate dehydrogenase (LsGluDHp-A175G, SEQ ID NO. 7) and alcohol dehydrogenase (TBADH, WP_041589967.1) with method in Step 3 of Embodiment 1; proceed with centrifugal collection of cells and ultrasonic cell disruption to prepare crude enzyme solution.
The final volume of the reaction is 30 mL; each sample contains 500 mM substrate PPO, 750 mM isopropanol, 250 mM (NH4)2SO4 and 0.5 mM NADP^+. Concentration of glutamate dehydrogenase cells (dry weight) is 0.5 g/L; concentration of alcohol dehydrogenase cells (dry weight) is 2.5 g/L. Use water bath to control the reaction temperature at 35° C.; titrate ammonia to control pH at 7.5 during the reaction process. […]

[5] = NADP+, GluDH cells 1.0 g/L, 35° C.
[6] = NADP+, GluDH cells 0.5 g/L, 35° C.
[7] = NAD+, GluDH cells 1.25 g/L, 50° C.

Molecule	Enzyme activity (per volume fermentation broth) [1] [U/mL]	Enzyme activity (per volume fermentation broth), times higher than that of wild type [1] [times]	Specific activity of pure enzyme [2] [U/mg]	Specific activity, times higher than that of wild type [2] [times]	concentration of formed L-phosphinothricin [3, 5] [g/L]	residual PPO [3, 5] [mM]	substrate conversion [3, 5] [%]	concentration of formed L-phosphinothricin [4] [g/L]	residual PPO [4] [mM]	substrate conversion [4] [%]	Fold change [1]	Enzyme activity of mutants (U/mL) [1] [U/mL]	concentration of formed L-phosphinothricin [3, 6] [g/L]	residual PPO [3, 6] [mM]	substrate conversion [3, 6] [%]	concentration of formed L-phosphinothricin [3, 7] [g/L]	residual PPO [3, 7] [mM]	substrate conversion [3, 7] [%]
B1	14.85	135	38.13	123	83.7	0.9	99.8											
B2	13.3	121	35.96	116	81.9	1.2	99.8											
B3								81.3	1.3	99.7	1641	34.47	82.4	0	100			
B4												0.50				80.3	1.4	99.7
